From US20190248902A1 (published 2019)
Changes are numbered by the printed parent chain. Blank lines part the entries; values can stand above or below the binder they belong to.

Tests used:
Human ASGR-2 = target: T1, Human ASGR-2 (human, UniProt P07307 1-311); test: FACS on transfected HEK 293 cells; binding = signal at least 2x irrelevant IgG
T1 construct: Expressed on HEK 293 cells; cDNA GenBank NM_080913.3; also called huASGR-2; hASGR-2
T1 sequence: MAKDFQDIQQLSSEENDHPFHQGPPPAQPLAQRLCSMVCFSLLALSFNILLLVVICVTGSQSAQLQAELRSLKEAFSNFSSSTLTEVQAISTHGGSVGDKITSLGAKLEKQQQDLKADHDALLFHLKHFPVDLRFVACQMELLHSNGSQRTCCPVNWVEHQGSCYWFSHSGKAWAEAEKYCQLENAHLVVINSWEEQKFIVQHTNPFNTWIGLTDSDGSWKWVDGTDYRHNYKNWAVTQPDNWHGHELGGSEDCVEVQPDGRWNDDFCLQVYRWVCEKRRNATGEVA
Description: Human ASGR-1-specific, ligand competing antibody samples were tested for binding to ASGR-1 from other species (cynomologus monkey ASGR-1, mouse ASGR-1, rat ASGR-1, dog ASGR-1, and pig ASGR-1) as well as to human ASGR-2 in FACS binding assays at normalized antibody concentrations. For cell-based assays, HEK 293 cells expressing the appropriate antigen of interest were mixed with antibody sample or controls, incubated for 1 hour at 4° C., and then washed twice. Cells with bound antibody were then incubated with Alexa Fluor® 647 IgG Fc fragment-specific detection antibody and 7-AAD viability stain for 15 minutes at 4° C., washed once and resuspended in FACS buffer. Samples were analyzed using a BD Accuri™ Flow Cytometer and an Intellicyt HyperCyt Autosampler. As a negative control, supernatants and controls were also screened against HEK 293 cells transfected with empty parental vector. […] For membrane-prep binding assays, ASGR-1 species specific membrane preps were used to coat LumAvidin® microspheres (beads) and tested for binding to selected hybridoma supernatants or controls. Briefly, ASGR-1 species specific membrane preps were incubated with streptavidin-coated LumAvidin® beads for 45 minutes in the dark at room temperature and washed twice. Beads were resuspeneded in FACS buffer containing Stabilguard®. Antigen-bound beads were then incubated with normalized antibody sample for 1 hour in the dark at room temperature, washed twice, incubated with Alexa Fluor® 488 IgG Fc fragment-specific detection antibody for 15 minutes in the dark at room temperature, washed once and finally resuspended in FACS buffer. Samples were analyzed using an Intellicyt iQue™ Screener Platform. FACS buffer supplemented with 1 mM Calcium Chloride was used in all steps. As a negative control, supernatants and controls were also screened against a non-ASGR-1 antigen membrane prep coated on the LumAvidin® beads.

Pig ASGR-1 = target: T2, Pig ASGR-1 (pig); test: FACS on transfected HEK 293 cells or membrane preps on beads; Y = signal at least 2x irrelevant IgG
T2 construct: Expressed on HEK 293 cells or as membrane prep on beads; cDNA GenBank NM_001244458
T2 chain: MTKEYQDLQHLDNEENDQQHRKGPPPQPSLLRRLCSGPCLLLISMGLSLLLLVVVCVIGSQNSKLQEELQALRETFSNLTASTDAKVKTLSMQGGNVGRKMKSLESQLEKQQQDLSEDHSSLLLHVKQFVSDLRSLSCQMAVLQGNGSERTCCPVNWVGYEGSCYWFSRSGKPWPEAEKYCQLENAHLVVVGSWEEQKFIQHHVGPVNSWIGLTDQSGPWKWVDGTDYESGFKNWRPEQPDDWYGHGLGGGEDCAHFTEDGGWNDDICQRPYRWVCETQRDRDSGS
Summary of the method: (§1)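 Antibodies at normalized concentrations bound 1 h at 4° C to HEK 293 cells expressing each antigen, then Alexa Fluor 647 anti-Fc plus 7-AAD 15 min at 4° C, flow cytometry; empty-vector cells as negative. Alternatively, species ASGR-1 membrane preps on streptavidin beads, antibody 1 h RT, Alexa Fluor 488 anti-Fc; FACS buffer with 1 mM CaCl2 throughout.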

Dog ASGR-1 = target: T3, Dog ASGR-1 (dog); test: FACS on transfected HEK 293 cells or membrane preps on beads; binding = signal at least 2x irrelevant IgG
T3 construct: Expressed on HEK 293 cells or as membrane prep on beads; cDNA GenBank XM_546579
T3 chain: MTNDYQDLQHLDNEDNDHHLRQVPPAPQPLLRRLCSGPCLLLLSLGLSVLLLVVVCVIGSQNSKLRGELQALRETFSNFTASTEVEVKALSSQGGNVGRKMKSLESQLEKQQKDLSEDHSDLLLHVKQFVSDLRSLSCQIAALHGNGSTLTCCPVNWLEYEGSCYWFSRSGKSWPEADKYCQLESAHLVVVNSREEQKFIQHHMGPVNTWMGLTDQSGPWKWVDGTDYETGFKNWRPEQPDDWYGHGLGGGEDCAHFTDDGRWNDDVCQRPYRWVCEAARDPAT
Summary of the method: as §1

binding result (Human ASGR-2): no binding | binding result (Pig ASGR-1): binds
B1: 72G9 (antibody, V domains shown)
VH: EVQLVESGGGLVKPGGSLRLSCAASGFTFSSYSMNWVRQAPGKGLEWVSSISGSSSYIYYADSVKGRFTISRDNAKNSLYLQMNSLRAEDTAVYFCARGGSRGFDPWGQGTLVTVSS
VL: DIQMTQSPSSLSASVGDRVTITCRASQSITSYLNWYQQKPGKAPKLLIYTASSLQSGVPSRFSGSGSGTDFTLTISSLQPEDFATYYCQQSHSFPFTFGPGTKVDIK
notes: Tested as hybridoma supernatant at normalized concentration

binding result (Human ASGR-2): no binding | binding result (Pig ASGR-1): binds
B2: 12D2 (antibody, V domains shown)
VH: EVQLVESGGGLVKPGGSLRLSCAASGFTFSSYSMNWVRQAPGKGLEWVSSISSSSSYIYYADSVKGRFTISRDNAKNSLYLQMNSLRAEDTAVYYCARLGDYWGQGTLVAVSS
VL: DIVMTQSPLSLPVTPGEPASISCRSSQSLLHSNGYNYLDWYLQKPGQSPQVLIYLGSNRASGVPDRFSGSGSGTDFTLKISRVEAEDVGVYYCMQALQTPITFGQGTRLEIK
notes: as for B1

binding result (Human ASGR-2): no binding | binding result (Dog ASGR-1): no binding | binding result (Pig ASGR-1): binds
B3: 198D2 (antibody, V domains shown)
VH: QVQLVESGGGVVQPGRSLRLSCAASGFTFRSYGMHWVRQAPGKGLEWVAVIIYDGSYKYYADSVKGRFTISRDNSKNTLYLQMNSLRAEDTAVYYCARTYSGGMDVWGQGTTVTVSS
VL: QSVLTQPPSVSAAPGQKVTISCSGSSSNIGSNYVSWYQQLPGTAPKVLIYDNNKRPSGIPDRFSGSKSGTSATLGITGLQTGDEADYYCGTWDSRLNVGVFGGGTKLTVL
notes: as for B1

binding result (Human ASGR-2): no binding | binding result (Pig ASGR-1): binds
B4: 184E7 (antibody, V domains shown)
VH: QVQLVQSGAEVKTPGASVKVSCRASGYTFTSYNMHWVRQVPGQGLEWMGWINPNNGGSNYTQKFQGRVTMTRDTSISTAYMELSRLRSDDTAVYYCARKFGDWGQGTLVTVSS
VL: DIQMTQSPSSRSASIGERVTITCRASQGISNYLAWIQQKPGTAPKSLIYAASSLQSGVSSRFSGSGFGTDFTITISSVQREDFATYYCQQYNGYPFTFGHGTKVDIK
notes: as for B1

binding result (Human ASGR-2): no binding | binding result (Dog ASGR-1): no binding
B5: 22G5 (antibody, V domains shown)
VH: EVQLLESGGGLVQPGGSLRLSCAASGFTFSSYAMNWVRQAPGMGLEWVSVISRSGGYTYYADSVKGRFTISRDNSKNTLYLQMNSLRAEDTAVYYCASRLAVAGSEAFDIWGQGTLVTVSS
VL: DIQMTQSPSSLSASVGDRVTITCRASQNISSYLNWYQQKQGKAPKLLIYAASSLQNGVPSRFSGRGSGTDFTLTISSLQPEDFATYYCQQSYRTPLFTFGPGTKVDFK
notes: as for B1

binding result (Human ASGR-2): no binding | binding result (Dog ASGR-1): no binding | binding result (Pig ASGR-1): binds
B6: 25A4 (antibody, V domains shown)
VH: QVLLVQSGAEVKRPGASVKVSCKASGYTFTNYDINWVRQATGQGLEWMGWMYPNSGNTGYAQKFQGRVTMTRNTSISTAYMELSSLRSEDTAVYYCASSSGWYYFDYWGQGTLVTVSS
VL: DIVMTQFPDSLAVSLGERATIKCKSSQSVLYSSHNNNYLAWYQQKPGQPPKLLLYWASTRESGVPDRFSGSGSGTEFTLTISSLEAEDVAVYYCQQYYSTPPTFGQGTKVEIK
notes: as for B1

binding result (Human ASGR-2): no binding | binding result (Dog ASGR-1): no binding | binding result (Pig ASGR-1): binds
B7: 26C4 (antibody, V domains shown)
VH: B6 VH with L3Q, R13K, T41S, Y52N, K63R, S77N
VL: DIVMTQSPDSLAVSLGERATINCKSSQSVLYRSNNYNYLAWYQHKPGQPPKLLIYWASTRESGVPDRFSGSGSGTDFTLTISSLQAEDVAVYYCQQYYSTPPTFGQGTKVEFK
notes: as for B1

binding result (Human ASGR-2): no binding | binding result (Dog ASGR-1): no binding | binding result (Pig ASGR-1): binds
B8: 7E11 (antibody, V domains shown)
VH: QVQLVESGGGVVQPGRSLRLSCAASGFTFSSFGMHWVRQAPGKGLEWVAIIWHDGSNKYYADSVKGRFTISRDNSNNTLYLQMSSLRAEDTAVYYCARDLSMGGMDVWGQGTTVTVSS
VL: DIQMTQSPSSLSASVGDRVTIACRASQNIISYLNWYQQKPGKAPKFLIYTASSLQSGVPSRFSGSGSGTDFTLTISSLQPEDFAIYYCQQTYSTPLTFGGGTKVEIK
notes: as for B1

binding result (Human ASGR-2): no binding | binding result (Pig ASGR-1): binds
B9: 194A4 (antibody, V domains shown)
VH: QVQLVQSGTEVKKPGASLKVSCKASGYTFTVYYLNWVRQAPGQGLEWMGWINPNSGGTNYAQKFQGRVTMTRDTSISTAYMELSRLRSDDTAVYYCARGYDILTGWGQGTLVTVSS
VL: EIVLTQSPGTLSLSPGERATLSCRASRGVSNIYLAWYQQKPGQAPRLLIYGASNRATGIPDRFSGSGSGTDFTLTISRLEPEDFAVYYCQHNDYSMFTFGPGTKVDIK
notes: as for B1

binding result (Human ASGR-2): no binding | binding result (Dog ASGR-1): no binding | binding result (Pig ASGR-1): binds
B10: 48B12 (antibody, V domains shown)
VH: EVQLLESGGGLVQPGGSLRLSCAASGFTFSSYAMNWVRQAPGKGLEWVSAISGRGGNTFYADSVKGRFTISRDNSKNTLYLQMNSLRAEDTAVYYCAKRETYNWNYEGFDYWGQGTLVTVSS
VL: SYELTQPPSVSVSPGQTARITCSGDALPKKYAYWYQQKSGQAPVLVIYEDSKRPSGIPERFSGSSSGTMATLTISGAQVEDEADYYCNSTDSSGNHVVFGGGTKLTVL
notes: as for B1

binding result (Human ASGR-2): no binding | binding result (Pig ASGR-1): binds
B11: 4B1 (antibody, V domains shown)
VH: QVQLQESGPGLVKPSETLSLTCSVSGDSISSYSWSWIRQPAGKGLEWIGRIYTSGSTNYIPSLKSRITMSVDTSKKQFSLKLSSVTAADTAVYYCARDLKSSGCLFFDYWGQGTLVTVSS
VL: DIQMTQSPSSLSASVGDRVTITCRASHTIRTYLNWYQQKPGKAPKLLIYAASSLQSGVPSRINGSGSGTDFTLTITNLQPEDFATYYCQQSYNISFTFGPGTKVDIK
notes: as for B1

binding result (Dog ASGR-1): no binding
B12: 6G7 (antibody, V domains shown)
VH: QVQLVESGGGVVQPGRSLRLSCAASGFTFSSYGMHWVRQTPGKGLEWVAIISYVGKNKYYADSVKGRFTISRDNSKNTLYLQMNSLRAEDTAVYYCARRGNSYGGYGMDVWGQGTTVTVSS
VL: DIQMTQSPSSRSASVGDRVTITCQASQDISNYLNWCQQKPGKALKLLIYDASTLETGVPSRFSGSGSGTDFTFTISSVQPEDIATYYCQQYDNVPITFGQGTRLEIK
notes: as for B1

binding result (Human ASGR-2): no binding | binding result (Dog ASGR-1): no binding | binding result (Pig ASGR-1): binds
B13: 7G4 (antibody, V domains shown)
VH: QVQLVESGGGVVQPGRSLRLSCAASGFTFNNYVMHWVRQAPGKGLEWVAVIWYDGSNKYYADSVKGRFTISRDNSKNTLYLQMTSLRAEDTAVYYCAREKYSSNWYDYGMDVWGQGTTVTVSS
VL: DIQMTQSPSSLSASVGDRVTITCRASQGIRNDLGWYQQRPGKAPKRLIYAASSLQSGVPSRFSGSGSGTEFTLTISSLQPEDSATYYCLHQYSYPRTFGQGTKVEIK
notes: as for B1

binding result (Human ASGR-2): no binding | binding result (Dog ASGR-1): no binding
B14: 5E5 (antibody, V domains shown)
VH: B13 VH with N30S, T84N, A97T, K100V, N104G
VL: B13 VL with R39K, S83F, H90Q, Q91H, I106V
notes: as for B1
